Results on six molecules are retold here after patent US20140154252A1 (EMERGENT PRODUCT DEVELOPMENT SEATTLE, published 2014).

The assay deals with T1, CD20 (human, UniProt P11836 1-297).
T1 construct: whole, on cells; 2H7 is called murine anti-human CD20; also called CD20 presented on WIL-2S cells; CD20 on Ramos, BJAB, SU-DHL-6 and DoHH2 B cells
T1 sequence (looked up): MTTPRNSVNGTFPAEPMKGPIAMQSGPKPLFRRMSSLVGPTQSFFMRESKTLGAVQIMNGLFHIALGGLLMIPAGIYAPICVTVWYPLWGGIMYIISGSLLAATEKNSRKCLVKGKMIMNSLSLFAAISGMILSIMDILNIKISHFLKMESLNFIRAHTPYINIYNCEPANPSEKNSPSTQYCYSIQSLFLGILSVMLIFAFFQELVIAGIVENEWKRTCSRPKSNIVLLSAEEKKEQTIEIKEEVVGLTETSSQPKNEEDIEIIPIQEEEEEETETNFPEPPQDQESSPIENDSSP
Nature of the assay: flow cytometry on WIL2-S cells (CD20), protein A purified protein at 0.72 ug/ml, FITC goat anti-human IgG. As to the method:
“L1-L6” refers to the 2H7-sss-hIgG-Lx-2e12 molecules where […] represents the L1-L6 linkers and the 2e12 V regions in the orientation of VL-VH. All the molecules were tested at a concentration of 0.72 μg/ml, and the binding detected using FITC conjugated goat anti-human IgG at 1:100.
On the technique in general: In flow cytometry, cells or beads pass a laser one at a time.

B1: 2H7-sss-hIgG P238S/P331S-H2-2e12 VHVL (bispecific antibody)
chain: QIVLSQSPAILSASPGEKVTMTCRASSSVSYMHWYQQKPGSSPKPWIYAPSNLASGVPARFSGSGSGTSYSLTISRVEAEDAATYYCQQWSFNPPTFGAGTKLELKDGGGSGGGGSGGGGSSQAYLQQSGAESVRPGASVKMSCKASGYTFTSYNMHWVKQTPRQGLEWIGAIYPGNGDTSYNQKFKGKATLTVDKSSSTAYMQLSSLTSEDSAVYFCARVVYYSNSYWYFDVWGTGTTVTVSEPKSSDKTHTSPPSPAPELLGGSSVFLFPPKPKDTLMISRTPEVTCVVVDVSHEDPEVKFNWYVDGVEVHNAKTKPREEQYNSTYRVVSVLTVLHQDWLNGKEYKCKVSNKALPASIEKTISKAKGQPREPQVYTLPPSRDELTKNQVSLTCLVKGFYPSDIAVEWESNGQPENNYKTTPPVLDSDGSFFLYSKLTVDKSRWQQGNVFSCSVMHEALHNHYTQKSLSLSPGKGGGGSGNSQVQLKESGPGLVAPSQSLSITCTVSGFSLTGYGVNWVRQPPGKGLEWLGMIWGDGSTDYNSALKSRLSITKDNSKSQVFLKMNSLQTDDTARYYCARDGYSNFHYYVMDYWGQGTSVTVSSGGGGSGGGGSGGGGSGGGGSDIVLTQSPASLAVSLGQRATISCRASESVEYYVTSLMQWYQQKPGQPPKLLISAASNVESGVPARFSGSGSGTDFSLNIHPVEEDDIAMYFCQQSRKVPWTFGGGTKLEIKR
notes: Assembled from modules as m11; also called 2H7-sss-hIgG-H2-2e12 HL
For the molecule B1, the binding result is reported as “binds”.

B2: 2H7-sss-hIgG P238S/P331S-H4-2e12 VHVL (bispecific antibody)
chain: QIVLSQSPAILSASPGEKVTMTCRASSSVSYMHWYQQKPGSSPKPWIYAPSNLASGVPARFSGSGSGTSYSLTISRVEAEDAATYYCQQWSFNPPTFGAGTKLELKDGGGSGGGGSGGGGSSQAYLQQSGAESVRPGASVKMSCKASGYTFTSYNMHWVKQTPRQGLEWIGAIYPGNGDTSYNQKFKGKATLTVDKSSSTAYMQLSSLTSEDSAVYFCARVVYYSNSYWYFDVWGTGTTVTVSEPKSSDKTHTSPPSPAPELLGGSSVFLFPPKPKDTLMISRTPEVTCVVVDVSHEDPEVKFNWYVDGVEVHNAKTKPREEQYNSTYRVVSVLTVLHQDWLNGKEYKCKVSNKALPASIEKTISKAKGQPREPQVYTLPPSRDELTKNQVSLTCLVKGFYPSDIAVEWESNGQPENNYKTTPPVLDSDGSFFLYSKLTVDKSRWQQGNVFSCSVMHEALHNHYTQKSLSLSPGKGGGGSGGGGSGNSQVQLKESGPGLVAPSQSLSITCTVSGFSLTGYGVNWVRQPPGKGLEWLGMIWGDGSTDYNSALKSRLSITKDNSKSQVFLKMNSLQTDDTARYYCARDGYSNFHYYVMDYWGQGTSVTVSSGGGGSGGGGSGGGGSGGGGSDIVLTQSPASLAVSLGQRATISCRASESVEYYVTSLMQWYQQKPGQPPKLLISAASNVESGVPARFSGSGSGTDFSLNIHPVEEDDIAMYFCQQSRKVPWTFGGGTKLEIKR
notes: Assembled from modules as m11; also called 2H7-sss-hIgG-H4-2e12 HL
As to B2, the binding result is “binds”.

B3: 2H7-sss-hIgG P238S/P331S-H1-2e12 VHVL (bispecific antibody)
chain: QIVLSQSPAILSASPGEKVTMTCRASSSVSYMHWYQQKPGSSPKPWIYAPSNLASGVPARFSGSGSGTSYSLTISRVEAEDAATYYCQQWSFNPPTFGAGTKLELKDGGGSGGGGSGGGGSSQAYLQQSGAESVRPGASVKMSCKASGYTFTSYNMHWVKQTPRQGLEWIGAIYPGNGDTSYNQKFKGKATLTVDKSSSTAYMQLSSLTSEDSAVYFCARVVYYSNSYWYFDVWGTGTTVTVSEPKSSDKTHTSPPSPAPELLGGSSVFLFPPKPKDTLMISRTPEVTCVVVDVSHEDPEVKFNWYVDGVEVHNAKTKPREEQYNSTYRVVSVLTVLHQDWLNGKEYKCKVSNKALPASIEKTISKAKGQPREPQVYTLPPSRDELTKNQVSLTCLVKGFYPSDIAVEWESNGQPENNYKTTPPVLDSDGSFFLYSKLTVDKSRWQQGNVFSCSVMHEALHNHYTQKSLSLSPGKNSQVQLKESGPGLVAPSQSLSITCTVSGFSLTGYGVNWVRQPPGKGLEWLGMIWGDGSTDYNSALKSRLSITKDNSKSQVFLKMNSLQTDDTARYYCARDGYSNFHYYVMDYWGQGTSVTVSSGGGGSGGGGSGGGGSGGGGSDIVLTQSPASLAVSLGQRATISCRASESVEYYVTSLMQWYQQKPGQPPKLLISAASNVESGVPARFSGSGSGTDFSLNIHPVEEDDIAMYFCQQSRKVPWTFGGGTKLEIKR
notes: Assembled from modules as m11; also called 2H7-sss-hIgG-H1-2e12 HL; TRU015-sss-IgG-H1-2e12 HL
B3: the binding result was “binds”.

B4: 2H7-sss-hIgG P238S/P331S-H5-2e12 VHVL (bispecific antibody)
chain: QIVLSQSPAILSASPGEKVTMTCRASSSVSYMHWYQQKPGSSPKPWIYAPSNLASGVPARFSGSGSGTSYSLTISRVEAEDAATYYCQQWSFNPPTFGAGTKLELKDGGGSGGGGSGGGGSSQAYLQQSGAESVRPGASVKMSCKASGYTFTSYNMHWVKQTPRQGLEWIGAIYPGNGDTSYNQKFKGKATLTVDKSSSTAYMQLSSLTSEDSAVYFCARVVYYSNSYWYFDVWGTGTTVTVSEPKSSDKTHTSPPSPAPELLGGSSVFLFPPKPKDTLMISRTPEVTCVVVDVSHEDPEVKFNWYVDGVEVHNAKTKPREEQYNSTYRVVSVLTVLHQDWLNGKEYKCKVSNKALPASIEKTISKAKGQPREPQVYTLPPSRDELTKNQVSLTCLVKGFYPSDIAVEWESNGQPENNYKTTPPVLDSDGSFFLYSKLTVDKSRWQQGNVFSCSVMHEALHNHYTQKSLSLSPGKNYGGGGSGGGGSGNSQVQLKESGPGLVAPSQSLSITCTVSGFSLTGYGVNWVRQPPGKGLEWLGMIWGDGSTDYNSALKSRLSITKDNSKSQVFLKMNSLQTDDTARYYCARDGYSNFHYYVMDYWGQGTSVTVSSGGGGSGGGGSGGGGSGGGGSDIVLTQSPASLAVSLGQRATISCRASESVEYYVTSLMQWYQQKPGQPPKLLISAASNVESGVPARFSGSGSGTDFSLNIHPVEEDDIAMYFCQQSRKVPWTFGGGTKLEIKR
notes: Assembled from modules as m11; also called 2H7-sss-hIgG-H5-2e12 HL
As to B4, the binding result is “binds”.

B5: 2H7-sss-hIgG-L6-2e12 (H6 linker, 2e12 VL-VH) (bispecific antibody)
chain (part 1 of 2): QIVLSQSPAILSASPGEKVTMTCRASSSVSYMHWYQQKPGSSPKPWIYAPSNLASGVPARFSGSGSGTSYSLTISRVEAEDAATYYCQQWSFNPPTFGAGTKLELKDGGGSGGGGSGGGGSSQAYLQQSGAESVRPGASVKMSCKASGYTFTSYNMHWVKQTPRQGLEWIGAIYPGNGDTSYNQKFKGKATLTVDKSSSTAYMQLSSLTSEDSAVYFCARVVYYSNSYWYFDVWGTGTTVTVSEPKSSDKTHTSPPSP
chain (part 2 of 2): GGGGSGGGGSGGGGSGNSDIVLTQSPASLAVSLGQRATISCRASESVEYYVTSLMQWYQQKPGQPPKLLISAASNVESGVPARFSGSGSGTDFSLNIHPVEEDDIAMYFCQQSRKVPWTFGGGTKLEIKRGGGGSGGGGSGGGGSQVQLKESGPGLVAPSQSLSITCTVSGFSLTGYGVNWVRQPPGKGLEWLGMIWGDGSTDYNSALKSRLSITKDNSKSQVFLKMNSLQTDDTARYYCARDGYSNFHYYVMDYWGQGTSVTVSS
notes: Assembled from modules as m10; not shown: human IgG1 CH2-CH3
Turning to B5, the binding result is given as “binds”.

B6: 2H7-sss-hIgG-L5-2e12 (H5 linker, 2e12 VL-VH) (bispecific antibody)
chain (part 1 of 2): QIVLSQSPAILSASPGEKVTMTCRASSSVSYMHWYQQKPGSSPKPWIYAPSNLASGVPARFSGSGSGTSYSLTISRVEAEDAATYYCQQWSFNPPTFGAGTKLELKDGGGSGGGGSGGGGSSQAYLQQSGAESVRPGASVKMSCKASGYTFTSYNMHWVKQTPRQGLEWIGAIYPGNGDTSYNQKFKGKATLTVDKSSSTAYMQLSSLTSEDSAVYFCARVVYYSNSYWYFDVWGTGTTVTVSEPKSSDKTHTSPPSP
chain (part 2 of 2): NYGGGGSGGGGSGNSDIVLTQSPASLAVSLGQRATISCRASESVEYYVTSLMQWYQQKPGQPPKLLISAASNVESGVPARFSGSGSGTDFSLNIHPVEEDDIAMYFCQQSRKVPWTFGGGTKLEIKRGGGGSGGGGSGGGGSQVQLKESGPGLVAPSQSLSITCTVSGFSLTGYGVNWVRQPPGKGLEWLGMIWGDGSTDYNSALKSRLSITKDNSKSQVFLKMNSLQTDDTARYYCARDGYSNFHYYVMDYWGQGTSVTVSS
notes: as for B5
For the molecule B6, the binding result was “binds”.
